In paper PMC10803776, “Structure of the M. tuberculosis DnaK−GrpE complex reveals how key DnaK roles are controlled” (Nature Communications, 2024):

Tests used:
SEC = target: the molecule itself; experiment: SEC
[1] = target: T1, Mycobacterium tuberculosis DnaK, full length, wild type (Mycobacterium tuberculosis, UniProt P9WMJ9 1-625); experiment: ITC; as a1, with 2 mM ADP added to both the DnaK and the GrpE solution; conditions: both partners purified
T1 construct: DnaK (Hsp70 chaperone) of Mycobacterium tuberculosis, full length; also called Mtb DnaK; WT DnaK

[2] = target: T1, Mycobacterium tuberculosis DnaK, full …; experiment: ITC; as a1, with 2 mM ATP added to both the DnaK and the GrpE solution; conditions: both partners purified

B1: Mycobacterium tuberculosis GrpE, full length, wild type (natural protein)
chain: MTDGNQKPDGNSGEQVTVTDKRRIDPETGEVRHVPPGDMPGGTAAADAAHTEDKVAELTADLQRVQADFANYRKRALRDQQAAADRAKASVVSQLLGVLDDLERARKHGDLESGPLKSVADKLDSALTGLGLVAFGAEGEDFDPVLHEAVQHEGDGGQGSKPVIGTVMRQGYQLGEQVLRHALVGVVDTVVVDAAELESVDDGTAVADTAENDQADQGNSADTSGEQAESEPSGS
notes: GrpE (nucleotide exchange factor) of Mycobacterium tuberculosis, full length; also called Mtb GrpE; WT GrpE
- stoichiometry N (SEC): 2
- Kd [1]: 1.79 µM
- stoichiometry N [1]: 0.69
- Kd [2]: 20.7 µM
- stoichiometry N [2]: 0.07
